Patent US20190336574A1 (TRUSTEES OF PRINCETON UNIVERSITY, published 2019)
Where no end group is shown, it is not given here. CFP = cyan fluorescent protein

B1: Myc-MTDH E399R, full-length human (other)
chain: MAARSWQDELAQQAEEGSARLREMLSVGLGFLRTELGLDLGLEPKRYPGWVILVGTGALGLLLLFLLGYGWAAACAGSRKKRRSPPRKREEAAAVPAAAPDDLALLKNLRSEEQKKKNRKKLSEKPKPNGRTVEVAEGEAVRTPQSVTAKQPPEIDKKNEKSKKNKKKSKSDAKAVQNSSRHDGKEVDEGAWETKISHREKRQQRKRDKVLTDSGSLDSTIPGIENTITVTTEQLTTASFPVGSKKNKGDSHLNVQVSNFKSGKGDSTLQVSSGLNENLTVNGGGWNEKSVKLSSQISAGEEKWNSVSPASAGKRKAEPSAWSQDTGDANTNGKDWGRSWSDRSIFSGIGSTAEPVSQSTTSDYQWDVSRNQPYIDDEWSGLNGLSSADPNSDWNAPAREWGNWVDEERASLLKSQEPIPDDQKVSDDDKEKGEGALPTGKSKKKKKKKKKQGEDNSTAQDTEELEKEIREDLPVNTSKTRPKQEKAFSLKTISTSDPAEVLVKNSQPIKTLPPATSTEPSVILSKSDSDKSSSQVPPILQETDKSKSNTKQNSVPPSQTKSETSWESPKQIKKKKKARRET
notes: Full-length, Myc-tagged; also called SPM21
B2: Myc-MTDH E400R, full-length human (other)
chain: MAARSWQDELAQQAEEGSARLREMLSVGLGFLRTELGLDLGLEPKRYPGWVILVGTGALGLLLLFLLGYGWAAACAGSRKKRRSPPRKREEAAAVPAAAPDDLALLKNLRSEEQKKKNRKKLSEKPKPNGRTVEVAEGEAVRTPQSVTAKQPPEIDKKNEKSKKNKKKSKSDAKAVQNSSRHDGKEVDEGAWETKISHREKRQQRKRDKVLTDSGSLDSTIPGIENTITVTTEQLTTASFPVGSKKNKGDSHLNVQVSNFKSGKGDSTLQVSSGLNENLTVNGGGWNEKSVKLSSQISAGEEKWNSVSPASAGKRKAEPSAWSQDTGDANTNGKDWGRSWSDRSIFSGIGSTAEPVSQSTTSDYQWDVSRNQPYIDDEWSGLNGLSSADPNSDWNAPAERWGNWVDEERASLLKSQEPIPDDQKVSDDDKEKGEGALPTGKSKKKKKKKKKQGEDNSTAQDTEELEKEIREDLPVNTSKTRPKQEKAFSLKTISTSDPAEVLVKNSQPIKTLPPATSTEPSVILSKSDSDKSSSQVPPILQETDKSKSNTKQNSVPPSQTKSETSWESPKQIKKKKKARRET
notes: Full-length, Myc-tagged; also called SPM22
B3: Myc-MTDH TPM2 (E399R, E400R, W401D), full-length human (other)
chain: MAARSWQDELAQQAEEGSARLREMLSVGLGFLRTELGLDLGLEPKRYPGWVILVGTGALGLLLLFLLGYGWAAACAGSRKKRRSPPRKREEAAAVPAAAPDDLALLKNLRSEEQKKKNRKKLSEKPKPNGRTVEVAEGEAVRTPQSVTAKQPPEIDKKNEKSKKNKKKSKSDAKAVQNSSRHDGKEVDEGAWETKISHREKRQQRKRDKVLTDSGSLDSTIPGIENTITVTTEQLTTASFPVGSKKNKGDSHLNVQVSNFKSGKGDSTLQVSSGLNENLTVNGGGWNEKSVKLSSQISAGEEKWNSVSPASAGKRKAEPSAWSQDTGDANTNGKDWGRSWSDRSIFSGIGSTAEPVSQSTTSDYQWDVSRNQPYIDDEWSGLNGLSSADPNSDWNAPARRDGNWVDEERASLLKSQEPIPDDQKVSDDDKEKGEGALPTGKSKKKKKKKKKQGEDNSTAQDTEELEKEIREDLPVNTSKTRPKQEKAFSLKTISTSDPAEVLVKNSQPIKTLPPATSTEPSVILSKSDSDKSSSQVPPILQETDKSKSNTKQNSVPPSQTKSETSWESPKQIKKKKKARRET
notes: Full-length, Myc-tagged; also called TPM2 MTDH
B4: Myc-MTDH TPM1 (D389R, D393R, W394D), full-length human (other)
chain: MAARSWQDELAQQAEEGSARLREMLSVGLGFLRTELGLDLGLEPKRYPGWVILVGTGALGLLLLFLLGYGWAAACAGSRKKRRSPPRKREEAAAVPAAAPDDLALLKNLRSEEQKKKNRKKLSEKPKPNGRTVEVAEGEAVRTPQSVTAKQPPEIDKKNEKSKKNKKKSKSDAKAVQNSSRHDGKEVDEGAWETKISHREKRQQRKRDKVLTDSGSLDSTIPGIENTITVTTEQLTTASFPVGSKKNKGDSHLNVQVSNFKSGKGDSTLQVSSGLNENLTVNGGGWNEKSVKLSSQISAGEEKWNSVSPASAGKRKAEPSAWSQDTGDANTNGKDWGRSWSDRSIFSGIGSTAEPVSQSTTSDYQWDVSRNQPYIDDEWSGLNGLSSARPNSRDNAPAEEWGNWVDEERASLLKSQEPIPDDQKVSDDDKEKGEGALPTGKSKKKKKKKKKQGEDNSTAQDTEELEKEIREDLPVNTSKTRPKQEKAFSLKTISTSDPAEVLVKNSQPIKTLPPATSTEPSVILSKSDSDKSSSQVPPILQETDKSKSNTKQNSVPPSQTKSETSWESPKQIKKKKKARRET
notes: Full-length, Myc-tagged; also called TPM1 MTDH

Tests used:
[1] = target: His-SND1 (16-339), SN1/2 domains, wild type (human) (UniProt Q7KZF4); assay: GST titration pull-down: GST-MTDH (386-407) on glutathione resin, SND1 (SN1/2) at 10, 3, 1, 0.5, 0.25, 0.12 (the sheet prints mM, paragraph 254 says µM), SDS-PAGE, Coomassie blue
[2] = target: TC-FLASH-SND1 (tetracysteine peptide fused to SND1 (16-339), labelled with FlAsH) (human) (UniProt Q7KZF4); assay: FRET, 0.2 µM CFP-MTDH titrated with TC-FLASH-SND1 (0.25-8 µM)
[3] = target: T1, HA-SND1, full-length human, wild type (human, UniProt Q7KZF4 1-910); assay: anti-HA co-IP (as printed on the sheet) from HEK293T lysate, western blot
T1 construct: Full-length, HA-tagged; Expressed in HEK293T cells, tested in lysate; also called HA-tagged SND1; WT HA-SND1
T1 sequence: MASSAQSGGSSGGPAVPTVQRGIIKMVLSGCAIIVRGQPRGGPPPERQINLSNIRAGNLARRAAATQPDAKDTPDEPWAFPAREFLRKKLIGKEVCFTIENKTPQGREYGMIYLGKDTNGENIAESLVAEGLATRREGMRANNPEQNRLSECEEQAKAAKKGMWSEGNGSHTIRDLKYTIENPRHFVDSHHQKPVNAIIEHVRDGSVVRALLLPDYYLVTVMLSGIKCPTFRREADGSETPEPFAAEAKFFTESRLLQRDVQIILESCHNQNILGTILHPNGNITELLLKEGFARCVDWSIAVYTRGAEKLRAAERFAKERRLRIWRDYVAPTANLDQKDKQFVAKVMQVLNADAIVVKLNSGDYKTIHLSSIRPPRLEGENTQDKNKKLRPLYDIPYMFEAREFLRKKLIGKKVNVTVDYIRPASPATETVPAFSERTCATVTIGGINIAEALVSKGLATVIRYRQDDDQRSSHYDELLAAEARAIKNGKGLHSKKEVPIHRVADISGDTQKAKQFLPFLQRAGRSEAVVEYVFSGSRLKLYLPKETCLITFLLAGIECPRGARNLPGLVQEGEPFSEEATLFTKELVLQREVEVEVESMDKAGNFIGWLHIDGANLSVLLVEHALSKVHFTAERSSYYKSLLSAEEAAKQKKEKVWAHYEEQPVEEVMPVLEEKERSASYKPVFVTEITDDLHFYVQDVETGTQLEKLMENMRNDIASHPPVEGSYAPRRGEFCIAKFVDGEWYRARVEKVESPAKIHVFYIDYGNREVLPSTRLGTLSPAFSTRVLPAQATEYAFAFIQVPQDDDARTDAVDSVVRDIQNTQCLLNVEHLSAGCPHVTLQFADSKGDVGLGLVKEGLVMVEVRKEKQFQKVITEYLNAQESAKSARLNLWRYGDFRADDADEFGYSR
From the text: The proteins bound to GS4B were examined on SDS-PAGE and visualized by Coomassie blue staining. […] The bound proteins were examined as in (FIG. 22A). For both (FIG. 22A) and (FIG. 22B), experiments were repeated three times; representative results are shown. The normalized percentage of binding was averaged from three experiments; mean±SEM was shown below the data. (FIG. 22C) HEK293T cells were transfected with human HA-SND1, WT Myc-MTDH or Myc-MTDH with indicated single point mutation. […] (FIG. 22D) HEK293T cells were transfected with human Myc-MTDH, WT HA-SND1 or mutant HA-SND1 with indicated single point mutations or deletions. […]
Immunoprecipitation and western blot: For in vivo immunoprecipitation (IP) experiments, cultured cells were washed in cold PBS and lysed in lysis buffer (20 mM Tris pH 7.4, 0.15 M NaCl, 1 mM EDTA, 1 mM EGTA, 1% Tx-100, 0.0025 M Na2P2O7, 1 mM β-glycerolphosphate, 1 mM Na3VO4, and 1 mM NaF) with an EDTA-free protease inhibitor mixture (Roche Applied Science) and PMSF. Cell lysates were then incubated on ice for 10 min, centrifuged, and precleared by incubating with protein A/G beads (Santa Cruz Biotechnology) for 1 h at 4° C. For IP bead preparation, 30 μl of protein A/G beads were incubated with 5 μg of antibodies for 2 h at 4° C. […]

[4] = target: T1, HA-SND1, full-length human, wild type; assay: co-IP (anti-Myc) from HEK293T lysates, western blot
[5] = target: human AGO2 (ectopically expressed in HEK293T cells) (human, UniProt Q9UKV8 1-859); assay: as above
Sequence of human AGO2 (ectopically expressed in HEK293T cells) (Q9UKV8 whole entry): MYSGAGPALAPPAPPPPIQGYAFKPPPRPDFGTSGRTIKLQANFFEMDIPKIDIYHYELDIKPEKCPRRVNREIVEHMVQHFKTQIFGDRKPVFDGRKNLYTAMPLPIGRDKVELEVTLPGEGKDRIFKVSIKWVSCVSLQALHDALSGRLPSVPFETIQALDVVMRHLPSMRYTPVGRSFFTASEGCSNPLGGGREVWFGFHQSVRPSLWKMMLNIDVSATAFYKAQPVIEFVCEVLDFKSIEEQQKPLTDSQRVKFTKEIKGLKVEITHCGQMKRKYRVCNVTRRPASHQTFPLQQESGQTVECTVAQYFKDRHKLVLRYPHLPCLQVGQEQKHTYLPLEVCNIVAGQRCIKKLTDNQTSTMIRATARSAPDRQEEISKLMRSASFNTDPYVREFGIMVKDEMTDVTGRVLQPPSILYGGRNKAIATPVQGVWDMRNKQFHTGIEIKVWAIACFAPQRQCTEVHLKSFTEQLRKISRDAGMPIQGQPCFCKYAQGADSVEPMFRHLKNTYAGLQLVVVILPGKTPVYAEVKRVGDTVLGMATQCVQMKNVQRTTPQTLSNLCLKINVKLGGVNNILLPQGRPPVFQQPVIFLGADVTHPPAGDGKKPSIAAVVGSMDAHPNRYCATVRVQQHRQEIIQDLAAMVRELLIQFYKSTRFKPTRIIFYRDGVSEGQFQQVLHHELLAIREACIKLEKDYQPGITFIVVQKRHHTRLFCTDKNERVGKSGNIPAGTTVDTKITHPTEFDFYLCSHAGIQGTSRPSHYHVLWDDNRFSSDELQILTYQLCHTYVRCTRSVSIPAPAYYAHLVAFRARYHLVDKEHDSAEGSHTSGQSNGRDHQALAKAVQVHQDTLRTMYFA

| Molecule | binding result [3] | binding result [4] | binding result [5] | further results |
| --- | --- | --- | --- | --- |
| PAE (397-399)→SQ | – | – | – | Estimated Binding Affinity [1]: 0.8 µM |
| {CFP}-SSADPNSDWNAPAEEWGNWVDE (peptide, not shown: large carriers, also: fused to CFP, whose letters are not given here) [CFP-MTDH fusion protein] | – | – | – | Kd [2]: 900 nM |
| B1 | binds | – | – | – |
| B2 | binds | – | – | – |
| B3 | – | no binding | binds | – |
| B4 | – | no binding | binds | – |
